The values that follow come from patent publication US20240294914A1, “COMPOSITIONS AND METHODS FOR TREATING HEPATITIS B VIRUS INFECTION” (priority 2021, published 2024).

The subject of the series is HBV genome in HEK293T cells transduced with a lentiviral vector. Nature of the series: Base editing efficiency in Hek293-lentiHBV system (PCR amplicons sequenced on MiSeq). The following applies: for Average Editing Efficiency (%): average of 3, base editor Cas12b-ABE; for Average Editing Efficiency (%) / Editing Efficiency 1 (%) / Editing Efficiency 2 (%) / Editing Efficiency 3 (%): plasmid transfection, four days; for Editing Efficiency 1 (%): replicate 1, base editor Cas12b-ABE; for Editing Efficiency 2 (%): replicate 2, base editor Cas12b-ABE; for Editing Efficiency 3 (%): replicate 3, base editor Cas12b-ABE. It is filed as cell-based, Hepatitis B virus. More on the design: Editing Efficiency 2 (%): concentration or dose not given beside the values.

Strand notation (5' to 3'): a small letter for the sugar, then the base; units joined by * are phosphorothioate-linked, units joined directly phosphodiester-linked; [ ] holds rarer units or linkages, { } end groups; capitals alone tell only the bases. m = 2'-O-methyl; r = 2'-OH (RNA)

B1: G-553: guide RNA SEQ ID NO: 5506 (nucleic acid)
guide: GGGCAACGGGGUAAAGGUUCGUUUUAGAGCUAGAAAUAGCAAGUUAAAAUAAGGCUAGUCCGUUAUCAACUUGAAAAAGUGGCACCGAGUCGGUGCUUUU
modifications: sugars from the 5' end m3 r93 m3 r1, linkages s3 o93 s3 (s phosphorothioate, o phosphodiester), T or U not given here
Turning to B1, under “base editor ABE8.8-m”, the “% Editing average” value amounted to 64%.

B2: cas12b-154: guide RNA SEQ ID NO: 387 (nucleic acid)
guide: mG*mU*mU*rCrUrGrUrCrUrUrUrUrGrGrUrCrArGrGrArCrArArCrCrGrUrCrUrArGrCrUrArUrArArGrUrGrCrUrGrCrArGrGrGrUrGrUrGrArGrArArArCrUrCrCrUrArUrUrGrCrUrGrGrArCrGrArUrGrUrCrUrCrUrUrArCrGrArGrGrCrArUrUrArGrCrArCrUrUrGrUrCrArArCrArArGrArArArArArCrCrCrC
With B2, the “Average Editing Efficiency (%)” value was 27.74%, the “Editing Efficiency 1 (%)” value is given as 16.12%, the “Editing Efficiency 2 (%)” value was found to be 30.06% and the “Editing Efficiency 3 (%)” value is on record as 37.02%.

B3: G-474: guide RNA SEQ ID NO: 5509 (nucleic acid)
guide: GAUUAAAGGUCUUUGUACUAGUUUUAGAGCUAGAAAUAGCAAGUUAAAAUAAGGCUAGUCCGUUAUCAACUUGAAAAAGUGGCACCGAGUCGGUGCUUUU
modifications: sugars from the 5' end m3 r93 m3 r1, linkages s3 o93 s3 (s phosphorothioate, o phosphodiester), T or U not given here
Consider B3, for which the “% Editing average” value (base editor VRQR-ABE) was 74%.

B4: G-159: guide RNA SEQ ID NO: 5488 (nucleic acid)
guide: GCAAACACUUGGCACAGACCGUUUUAGAGCUAGAAAUAGCAAGUUAAAAUAAGGCUAGUCCGUUAUCAACUUGAAAAAGUGGCACCGAGUCGGUGCUUUU
modifications: sugars from the 5' end m3 r93 m3 r1, linkages s3 o93 s3 (s phosphorothioate, o phosphodiester), T or U not given here
B4: the “% Editing average” value (base editor Abe7.10) stood at 51%.

B5: G-251: guide RNA SEQ ID NO: 5504 (nucleic acid)
guide: CAGGUAUUGUUUACACAGAAGUUUUAGAGCUAGAAAUAGCAAGUUAAAAUAAGGCUAGUCCGUUAUCAACUUGAAAAAGUGGCACCGAGUCGGUGCUUUU
modifications: sugars from the 5' end m3 r93 m3 r1, linkages s3 o93 s3 (s phosphorothioate, o phosphodiester), T or U not given here
Consider B5, for which the “% Editing average” value (base editor Abe7.10) is given as 77%.

B6: G-772: guide RNA SEQ ID NO: 5501 (nucleic acid)
guide: UGGCGAUUGGUGGAGGCAGGGUUUUAGAGCUAGAAAUAGCAAGUUAAAAUAAGGCUAGUCCGUUAUCAACUUGAAAAAGUGGCACCGAGUCGGUGCUUUU
modifications: sugars from the 5' end m3 r93 m3 r1, linkages s3 o93 s3 (s phosphorothioate, o phosphodiester), T or U not given here
As for B6, the “% Editing average” value (base editor Abe7.10) was 66%.

B7: G-845: guide RNA SEQ ID NO: 5508 (nucleic acid)
guide: UUUGAAGUAUGCCUCAAGGUGUUUUAGAGCUAGAAAUAGCAAGUUAAAAUAAGGCUAGUCCGUUAUCAACUUGAAAAAGUGGCACCGAGUCGGUGCUUUU
modifications: sugars from the 5' end m3 r93 m3 r1, linkages s3 o93 s3 (s phosphorothioate, o phosphodiester), T or U not given here
As for B7, for the setting “base editor Abe7.10”, the “% Editing average” value was found to be 70%.

B8: cas12b-147: guide RNA SEQ ID NO: 386 (nucleic acid)
guide: mG*mU*mU*rCrUrGrUrCrUrUrUrUrGrGrUrCrArGrGrArCrArArCrCrGrUrCrUrArGrCrUrArUrArArGrUrGrCrUrGrCrArGrGrGrUrGrUrGrArGrArArArCrUrCrCrUrArUrUrGrCrUrGrGrArCrGrArUrGrUrCrUrCrUrUrArCrGrArGrGrCrArUrUrArGrCrArCrGrArGrGrArCrArArArCrGrGrGrCrArArCrArUrA
Turning to B8, the “Average Editing Efficiency (%)” value is listed as 10.83%, the “Editing Efficiency 1 (%)” value amounted to 13.02%, the “Editing Efficiency 2 (%)” value is 4.44% and the “Editing Efficiency 3 (%)” value was 15.03%.

B9: G-200: guide RNA SEQ ID NO: 5498 (nucleic acid)
guide: GUGAAAAAGUUGCAUGGUGCGUUUUAGAGCUAGAAAUAGCAAGUUAAAAUAAGGCUAGUCCGUUAUCAACUUGAAAAAGUGGCACCGAGUCGGUGCUUUU
modifications: sugars from the 5' end m3 r93 m3 r1, linkages s3 o93 s3 (s phosphorothioate, o phosphodiester), T or U not given here
For the molecule B9, for the setting “base editor ABE8.8-m”, the “% Editing average” value is reported as 59%.

B10: cas12b-30: guide RNA SEQ ID NO: 383 (nucleic acid)
guide: mG*mU*mU*rCrUrGrUrCrUrUrUrUrGrGrUrCrArGrGrArCrArArCrCrGrUrCrUrArGrCrUrArUrArArGrUrGrCrUrGrCrArGrGrGrUrGrUrGrArGrArArArCrUrCrCrUrArUrUrGrCrUrGrGrArCrGrArUrGrUrCrUrCrUrUrArCrGrArGrGrCrArUrUrArGrCrArCrGrCrUrGrArCrGrCrArArCrCrCrCrCrArCrUrGrG
With B10, the “Average Editing Efficiency (%)” value was determined as 0.02%, the “Editing Efficiency 1 (%)” value is 0.02%, the “Editing Efficiency 2 (%)” value was determined as 0.02% and the “Editing Efficiency 3 (%)” value is reported as 0.01%.

B11: cas12b-42: guide RNA SEQ ID NO: 384 (nucleic acid)
guide: mG*mU*mU*rCrUrGrUrCrUrUrUrUrGrGrUrCrArGrGrArCrArArCrCrGrUrCrUrArGrCrUrArUrArArGrUrGrCrUrGrCrArGrGrGrUrGrUrGrArGrArArArCrUrCrCrUrArUrUrGrCrUrGrGrArCrGrArUrGrUrCrUrCrUrUrArCrGrArGrGrCrArUrUrArGrCrArCrGrGrArGrCrUrArCrUrGrUrGrGrArGrUrUrArCrU
For B11, the “Average Editing Efficiency (%)” value worked out at 28.99%, the “Editing Efficiency 1 (%)” value is given as 29.48%, the “Editing Efficiency 2 (%)” value is 23.94% and the “Editing Efficiency 3 (%)” value worked out at 33.54%.

B12: cas12b-100: guide RNA SEQ ID NO: 385 (nucleic acid)
guide: mG*mU*mU*rCrUrGrUrCrUrUrUrUrGrGrUrCrArGrGrArCrArArCrCrGrUrCrUrArGrCrUrArUrArArGrUrGrCrUrGrCrArGrGrGrUrGrUrGrArGrArArArCrUrCrCrUrArUrUrGrCrUrGrGrArCrGrArUrGrUrCrUrCrUrUrArCrGrArGrGrCrArUrUrArGrCrArCrUrUrCrUrUrCrUrArGrGrGrGrArCrCrUrGrCrCrU
Take B12: the “Average Editing Efficiency (%)” value is reported as 5.18%, the “Editing Efficiency 1 (%)” value stood at 7.97%, the “Editing Efficiency 2 (%)” value turned out to be 4.21% and the “Editing Efficiency 3 (%)” value is 3.35%.

B13: cas12b-17: guide RNA SEQ ID NO: 382 (nucleic acid)
guide: mG*mU*mU*rCrUrGrUrCrUrUrUrUrGrGrUrCrArGrGrArCrArArCrCrGrUrCrUrArGrCrUrArUrArArGrUrGrCrUrGrCrArGrGrGrUrGrUrGrArGrArArArCrUrCrCrUrArUrUrGrCrUrGrGrArCrGrArUrGrUrCrUrCrUrUrArCrGrArGrGrCrArUrUrArGrCrArCrGrGrGrGrCrCrArArGrUrCrUrGrUrArCrArGrCrA
Regarding B13, the “Average Editing Efficiency (%)” value is listed as 35.07%, the “Editing Efficiency 1 (%)” value worked out at 26.42%, the “Editing Efficiency 2 (%)” value is 34.50% and the “Editing Efficiency 3 (%)” value is on record as 44.29%.
